“Also recorded” adds a separate entry of the source.
What was measured:
[1] = Aminopeptidase activity assay with fluorogenic aminoacyl-AMC substrates; type: biochemical; settings: for preference for aminoacyl-AMC substrates compared to Leu-AMC: Leu-AMC used as a reference; for hydrolytic activity toward Ala-AMC in comparison (%) to Leu-MCA: substrate Ala-AMC; for hydrolytic activity toward Ala-AMC in comparison (%) to Leu-MCA / hydrolytic activity toward Arg-AMC in comparison (%) to Leu-MCA / hydrolytic activity toward Asn-AMC in comparison (%) to Leu-MCA / hydrolytic activity toward Asp-AMC in comparison (%) to Leu-MCA / hydrolytic activity toward Cys-AMC in comparison (%) to Leu-MCA / hydrolytic activity toward Gln-AMC in comparison (%) to Leu-MCA / hydrolytic activity toward Glu-AMC in comparison (%) to Leu-MCA / hydrolytic activity toward Gly-AMC in comparison (%) to Leu-MCA / hydrolytic activity toward Gly-Pro-AMC in comparison (%) to Leu-MCA / hydrolytic activity toward His-AMC in comparison (%) to Leu-MCA / hydrolytic activity toward Hyp-AMC in comparison (%) to Leu-MCA / hydrolytic activity toward Ile-AMC in comparison (%) to Leu-MCA / hydrolytic activity toward Leu-AMC in comparison (%) to Leu-MCA used as a standard / hydrolytic activity toward Lys-AMC in comparison (%) to Leu-MCA / hydrolytic activity toward Met-AMC in comparison (%) to Leu-MCA / hydrolytic activity toward Phe-AMC in comparison (%) to Leu-MCA / hydrolytic activity toward Pro-AMC in comparison (%) to Leu-MCA / hydrolytic activity toward Pyr-AMC in comparison (%) to Leu-MCA / hydrolytic activity toward Ser-AMC in comparison (%) to Leu-MCA / hydrolytic activity toward Thr-AMC in comparison (%) to Leu-MCA / hydrolytic activity toward Val-AMC in comparison (%) to Leu-MCA: 5 mM, 37° C., 60 min; for hydrolytic activity toward Arg-AMC in comparison (%) to Leu-MCA: substrate Arg-AMC; for hydrolytic activity toward Asn-AMC in comparison (%) to Leu-MCA: substrate Asn-AMC; for hydrolytic activity toward Asp-AMC in comparison (%) to Leu-MCA: substrate Asp-AMC; for hydrolytic activity toward Cys-AMC in comparison (%) to Leu-MCA: substrate Cys-AMC; for hydrolytic activity toward Gln-AMC in comparison (%) to Leu-MCA: substrate Gln-AMC; for hydrolytic activity toward Glu-AMC in comparison (%) to Leu-MCA: substrate Glu-AMC; for hydrolytic activity toward Gly-AMC in comparison (%) to Leu-MCA: substrate Gly-AMC; for hydrolytic activity toward Gly-Pro-AMC in comparison (%) to Leu-MCA: substrate Gly-Pro-AMC; for hydrolytic activity toward His-AMC in comparison (%) to Leu-MCA: substrate His-AMC; for hydrolytic activity toward Hyp-AMC in comparison (%) to Leu-MCA: substrate Hyp-AMC; for hydrolytic activity toward Ile-AMC in comparison (%) to Leu-MCA: substrate Ile-AMC; for hydrolytic activity toward Leu-AMC in comparison (%) to Leu-MCA used as a standard: substrate Leu-AMC (standard); for hydrolytic activity toward Lys-AMC in comparison (%) to Leu-MCA: substrate Lys-AMC; for hydrolytic activity toward Met-AMC in comparison (%) to Leu-MCA: substrate Met-AMC; for hydrolytic activity toward Phe-AMC in comparison (%) to Leu-MCA: substrate Phe-AMC; for hydrolytic activity toward Pro-AMC in comparison (%) to Leu-MCA: substrate Pro-AMC; for hydrolytic activity toward Pyr-AMC in comparison (%) to Leu-MCA: substrate Pyr-AMC; for hydrolytic activity toward Ser-AMC in comparison (%) to Leu-MCA: substrate Ser-AMC; for hydrolytic activity toward Thr-AMC in comparison (%) to Leu-MCA: substrate Thr-AMC; for hydrolytic activity toward Val-AMC in comparison (%) to Leu-MCA: substrate Val-AMC
Procedure: (§1) Aminopeptidase activity was determined using different fluorogenic aminoacyl-4-methylcoumaryl-7-amide derivatives of peptides and the internally quenched fluorogenic substrate Lys(Abz)-Pro-Pro-pNA for specific determination of aminopeptidase P activity. Stockel et al, Adv Exp. Med. Biol. 421:31-35 (1997). All substrates were from Bachem (Bubendorf, Switzerland). Substrate stock solutions were prepared at 0.1 M according to the recommendations of the manufacturer and stored at −20° C. The reaction mixture contained a concentration of 5 mM substrate and enzyme preparation (between 56 and 2,662 ng per assay depending on the cleavage activity of each enzyme for the substrates) in 25 μl of 50 mM Tris-HCl buffer adjusted at the optimal pH for each LAP (between 7 and 8). After incubation at 37° C. for 60 min, the reaction was terminated by adding 5 μl of glacial acetic acid and the reaction mixture was diluted with 3.5 ml of water. The released 7-amino-4-methylcoumarin (AMC) was measured using a spectrofluorophotometer (Perkin Elmer LS-5 fluorometer, Zurich, Switzerland) at an excitation wavelength of 370 nm and an emission wavelength of 460 nm. A standard curve made with synthetic AMC was used to assess the released AMC. The released diprolyl-p-nitroanilide was measured at an excitation wavelength of 310 nm and an emission wavelength of 410 nm. The LA activities were expressed in mnoles of released AMC or pNA/min/μg protein.
Table 15 details the hydrolytic activity of different LAPs toward various aminoacyl-MCA comparison (%) to Leu-MCA used as a standard.

[2] = Aminopeptidase P activity assay; type: biochemical; settings: substrate Lys(Abz)-Pro-Pro-pNA, 5 mM, 37° C., 60 min
Procedure: as §1

gliadin 33 mer = assay: Digestion of gliadin 33 mer (RP-HPLC, ESI-MS); type: biochemical, wheat; settings: 37° C., 1 mM CoCl2, pH7.2

| Molecule | hydrolysis of Leu-AMC [1] | preference for aminoacyl-AMC substrates compared to Leu-AMC [1] | hydrolytic activity toward Ala-AMC in comparison (%) to Leu-MCA [1] | hydrolytic activity toward Arg-AMC in comparison (%) to Leu-MCA [1] | hydrolytic activity toward Asn-AMC in comparison (%) to Leu-MCA [1] | hydrolytic activity toward Asp-AMC in comparison (%) to Leu-MCA [1] | hydrolytic activity toward Cys-AMC in comparison (%) to Leu-MCA [1] | hydrolytic activity toward Gln-AMC in comparison (%) to Leu-MCA [1] | hydrolytic activity toward Glu-AMC in comparison (%) to Leu-MCA [1] | hydrolytic activity toward Gly-AMC in comparison (%) to Leu-MCA [1] | hydrolytic activity toward Gly-Pro-AMC in comparison (%) to Leu-MCA [1] | hydrolytic activity toward His-AMC in comparison (%) to Leu-MCA [1] | hydrolytic activity toward Hyp-AMC in comparison (%) to Leu-MCA [1] | hydrolytic activity toward Ile-AMC in comparison (%) to Leu-MCA [1] | hydrolytic activity toward Leu-AMC in comparison (%) to Leu-MCA used as a standard [1] | hydrolytic activity toward Lys-AMC in comparison (%) to Leu-MCA [1] | hydrolytic activity toward Met-AMC in comparison (%) to Leu-MCA [1] | hydrolytic activity toward Phe-AMC in comparison (%) to Leu-MCA [1] | hydrolytic activity toward Pro-AMC in comparison (%) to Leu-MCA [1] | hydrolytic activity toward Pyr-AMC in comparison (%) to Leu-MCA [1] | other results |
| --- | --- | --- | --- | --- | --- | --- | --- | --- | --- | --- | --- | --- | --- | --- | --- | --- | --- | --- | --- | --- | --- |
| fuLAP1: A. fumigatus leucine aminopeptidase, 388 amino acid residues (SEQ ID NO: 12) (protein, listed as Aspergillus fumigatus) MKVLTAIALSAIAFTGAVAAVITQEAFLNNPRIHHDQEKYLIELAPYRTRWVTEEEKWALKLDGVNFIDITEEHNTGFYPTLHSASYVKYPPKMQYAEEVAALNKNLSKENMKANLERFTSFHTRYYKSQTGIRSATWLFDQVQRVVSESGAAEYGATVERFSHPWGQFSIIARIPGRTNKTVVLGAHQDSINLFLPSILAAPGADDDGSGTVTILEALRGLLQSDAIAKGNASNTVEFHWYSAEEGGMLGSQAIFSNYKRNRREIKAMLQQDMTGYVQGALNAGVEEAIGIMVDYVDQGLTQFLKDVVTAYCSVGYLETKCGYACSDHTSASKYGYPAAMATEAEMENTNKKIHTTDDKIKYLSFDHMLEHAKLSLGFAFELAFAPF | efficiently hydrolyzed | appreciated Arg-, Val-, and Phe-AMC; also recorded: common preference for Leu-AMC as a substrate | 4.7% | 53.9% | 29.4% | 0.8% | 5.0% | 44.9% | 0.0% | 0.8% | 5.4% | 0.8% | 3.9% | 13.2% | 100.0% | 7.7% | 116.9% | 163.7% | 12.0% | 0.0% | hydrolytic activity toward Ser-AMC in comparison (%) to Leu-MCA [1]: 10.3%; hydrolytic activity toward Thr-AMC in comparison (%) to Leu-MCA [1]: 5.1%; hydrolytic activity toward Val-AMC in comparison (%) to Leu-MCA [1]: 27.6%; hydrolytic activity toward Lys(Abz) Pro-PropNA in comparison (%) to Leu-MCA [2]: 0.0% |
| pkLAP: commercially available microsomal LAP from porcine kidney (MEROPS>M1 family) (protein, UniProt P15145 2-963, looked up) Aminopeptidase N: AKGFYISKALGILGILLGVAAVATIIALSVVYAQEKNKNAEHVPQAPTSPTITTTAAITLDQSKPWNRYRLPTTLLPDSYNVTLRPYLTPNADGLYIFKGKSIVRLLCQEPTDVIIIHSKKLNYTTQGHMVVLRGVGDSQVPEIDRTELVELTEYLVVHLKGSLQPGHMYEMESEFQGELADDLAGFYRSEYMEGNVKKVLATTQMQSTDARKSFPCFDEPAMKATFNITLIHPNNLTALSNMPPKGSSTPLAEDPNWSVTEFETTPVMSTYLLAYIVSEFQSVNETAQNGVLIRIWARPNAIAEGHGMYALNVTGPILNFFANHYNTSYPLPKSDQIALPDFNAGAMENWGLVTYRENALLFDPQSSSISNKERVVTVIAHELAHQWFGNLVTLAWWNDLWLNEGFASYVEYLGADHAEPTWNLKDLIVPGDVYRVMAVDALASSHPLTTPAEEVNTPAQISEMFDSISYSKGASVIRMLSNFLTEDLFKEGLASYLHAFAYQNTTYLDLWEHLQKAVDAQTSIRLPDTVRAIMDRWTLQMGFPVITVDTKTGNISQKHFLLDSESNVTRSSAFDYLWIVPISSIKNGVMQDHYWLRDVSQAQNDLFKTASDDWVLLNVNVTGYFQVNYDEDNWRMIQHQLQTNLSVIPVINRAQVIYDSFNLATAHMVPVTLALDNTLFLNGEKEYMPWQAALSSLSYFSLMFDRSEVYGPMKKYLRKQVEPLFQHFETLTKNWTERPENLMDQYSEINAISTACSNGLPQCENLAKTLFDQWMSDPENNPIHPNLRSTIYCNAIAQGGQDQWDFAWGQLQQAQLVNEADKLRSALACSNEVWLLNRYLGYTLNPDLIRKQDATSTINSIASNVIGQPLAWDFVQSNWKKLFQDYGGGSFSFSNLIQGVTRRFSSEFELQQLEQFKKNNMDVGFGSGTRALEQALEKTKANIKWVKENKEVVLNWFIEHS | efficiently hydrolyzed | extremely high efficiency towards Ala-AMC and Arg-AMC; also recorded: common preference for Leu-AMC as a substrate | 584.7% | 174.8% | 33.9% | 0.9% | 35.5% | 50.7% | 4.7% | 74.8% | 16.7% | 17.6% | 1.7% | 6.3% | 100.0% | 70.1% | 46.1% | 184.4% | 7.9% | 0.0% | hydrolytic activity toward Ser-AMC in comparison (%) to Leu-MCA [1]: 24.6%; hydrolytic activity toward Thr-AMC in comparison (%) to Leu-MCA [1]: 4.4%; hydrolytic activity toward Val-AMC in comparison (%) to Leu-MCA [1]: 4.0%; hydrolytic activity toward Lys(Abz) Pro-PropNA in comparison (%) to Leu-MCA [2]: 0.0%; digestion of the 33 mer (gliadin 33 mer): partial deletion of N-terminal Leu and C-terminal Phe |
| fuLAP2: A. fumigatus leucine aminopeptidase, 498 amino acid residues (SEQ ID NO: 9) (protein, listed as Aspergillus fumigatus) MKLLYLTSFASLAVANGPGWDWKPRVHPKVLPQMIHLWDLLQGAQQLEDFAYAYPERNRVFGGRAHEDTVNYLYRELKKTGYYDVYKQPQVHQWTRADQALTVDGQSYDATTMTYSPSVNATAPLAVVNNLGCVEADYPADLTGKIALISRGECTFATKSVLSAKAGAAAALVYNNIEGSMAGTLGGATSELGAYAPIAGISLADGQALIQMIQAGTVTANLWIDSQVENRTTYNVIAQTKGGDPNNVVALGGHTDSVEAGPGINDDGSGIISNLVVAKALTRFSVKNAVRFCFWTAEEFGLLGSNYYVNSLNATEQAKIRLYLNFDMIASPNYALMIYDGDGSAFNLTGPAGSAQIERLFEDYYTSIRKPFVPTEFNGRSDYQAFILNGIPAGGLFTGAEAIKTEEQAQLFGGQAGVALDANYHAKGDNMTNLNREAFLINSRATAFAVATYANSLDSIPPRNMTTVVKRSQLEQAMKRTPHTHTGGTGCYKDRVEQ | efficiently hydrolyzed | common preference for Leu-AMC as a substrate | 11.7% | 2.3% | 73.5% | 0.3% | 2.1% | 37.0% | 1.1% | 2.2% | 74.1% | 1.9% | 13.3% | 1.8% | 100.0% | 2.3% | 89.5% | 8.9% | 7.4% | 0.0% | hydrolytic activity toward Ser-AMC in comparison (%) to Leu-MCA [1]: 10.3%; hydrolytic activity toward Thr-AMC in comparison (%) to Leu-MCA [1]: 0.1%; hydrolytic activity toward Val-AMC in comparison (%) to Leu-MCA [1]: 0.8%; hydrolytic activity toward Lys(Abz) Pro-PropNA in comparison (%) to Leu-MCA [2]: 0.0% |

From patent US7943340B2, “Fungal dipeptidyl peptidase IV (DPPIV) enzyme for reagent use” (priority 2003, dated 2011)
